US20100048604A1, “Ligands for Aldoketoreductases” (priority 2004, published 2010)

Tests used:
AKR1C1-AKR1C4 = experiment: Substrate tolerance and selectivity across the four human AKR1C isozymes; format: biochemical; conditions: AKR1C1-AKR1C4, purified enzymes, NADPH
Text: (§1) AKR1C2 and AKR1C3 Selective Probes: Probes (5a-5i) were examined as substrates for the four purified human HSD isozymes (AKR1C1-AKR1C4) under standard assay conditions [catalytic quantities of enzyme, an excess of cofactor (NADPH)]. The initial reaction rates were used to derive standard kinetic parameters (kcat and Km, Materials and Methods).
(§2) Substrate tolerance of AKR1Cs: Isozyme Activity with 5a-5i: Activity of the second generation of fluorogenic substrates with the AKR1C isozymes was determined as follows. To a STARNA semi-micro fluorimeter cell (with 4 polished windows) was added 100 μL of 1 M potassium phosphate buffer (pH 6), 840 μL doubly deionized water, and 20 μL of 12.5 mM NADPH. After mixing the aqueous components thoroughly, 20 μL of acetonitrile was added as a cosolvent and mixed well. 20 μL of 2.5 mM second generation fluorogenic ketone in acetonitrile (5a-5i) was then added and mixed. 4 μL of undiluted AKR1C (provided generously by the Penning lab at concentrations of 2.5 mg/mL) were then added to the cuvette for a total of 10 μg purified enzyme in the 1 mL assay volume. Fluorescence arising from the respective alcohol reduction product was then monitored over the course of 5-10 minutes.
Binding constant and catalytic rates (Km and kcat) of the second generation of fluorogenic substrates was determined as follows. To a STARNA semi-micro fluorometer cell (with 4 polished windows) was added 100 μL of 1 M potassium phosphate buffer (pH 6), 840 μL doubly deionized water, and 20 AL of 12.5 mM NADPH. After mixing the aqueous components thoroughly, 20 μL of acetonitrile was added as a cosolvent and mixed well. […] Fluorescence arising from the respective alcohol reduction product was then monitored over the course of 3 minutes (Excitation and emission band pass slits both at 4 nm, lamp 700 V, λexc 410 nm, λem 510). The rate of product formation, expressed in units of nanomoles per minute, were calculated according to previously published procedures (Wierzchowski, J.; Dafeldecker, W. P.; Holmquist, B.; Vallee, B. L. Anal. Biochem. 1989, 178, 57-62): […]

[1] = target: T1, horse liver alcohol dehydrogenase (HLAD) (Equus caballus, UniProt P00327); experiment: Enzymatic screening of probes 1-7 against a panel of oxidoreductases; format: biochemical; conditions: 12 hour incubation, 30-50 μM substrate, pH 7, 250 μM NAD(P)H
T1 construct: purchased Sigma (St. Louis, Mo.) Lot Number 51K7520 (catalogue number not given)
T1 sequence (P00327 2-375 limits assumed): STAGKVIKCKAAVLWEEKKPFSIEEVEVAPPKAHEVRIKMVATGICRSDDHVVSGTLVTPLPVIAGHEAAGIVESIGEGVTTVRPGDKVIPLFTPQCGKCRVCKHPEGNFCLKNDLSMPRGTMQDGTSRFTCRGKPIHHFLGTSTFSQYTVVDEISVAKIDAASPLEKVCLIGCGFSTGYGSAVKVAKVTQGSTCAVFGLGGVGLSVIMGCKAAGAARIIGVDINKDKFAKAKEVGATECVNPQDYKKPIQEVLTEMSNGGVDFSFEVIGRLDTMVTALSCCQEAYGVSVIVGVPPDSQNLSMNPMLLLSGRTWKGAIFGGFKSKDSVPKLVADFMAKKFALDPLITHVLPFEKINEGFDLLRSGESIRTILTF
Method: (§3) FIG. 4. Screening of probes 1-7 against a panel of oxidoreductases Percentage fluorescence increase after 12 hour incubation of 30-50 μM substrate, 100 mM phosphate buffer (pH 7), 250 μM NAD(P)H, and 100 nM enzyme. Substrates 1, 2, 3, and 4 monitored at λexc=340 nm, λem=440 nm. Substrates 5, 6, and 7 monitored at λexc=440 nm, λem=510 nm. 3HSD, 3α-hydroxysteroid dehydrogenase (PT, Pseudomonas testosteroni), HLAD, horse liver alcohol dehydrogenase, TBAD, Thermoanaerobium brockii alcohol dehydrogenase, BS 12HSD, Bacillus sp. 12α-hydroxysteroid dehydrogenase, ABAD, amyloid-β binding alcohol dehydrogenase (human), GDH, glycerol dehydrogenase, YADH, yeast alcohol dehydrogenase, LDH, lactate dehydrogenase.
(§4) Probes 1-7 (see FIG. 3) were subsequently tested against a collection of dehydrogenases in the presence of NAD(P)H; the extent of reduction was assessed by the measurement of fluorescence intensity at the emission maximum of each probe (FIG. 4). This assay included enzymes from two major oxidoreductase superfamilies, the short chain alcohol dehydrogenases (SDR) and the aldo-keto reductases (AKR), ranging from bacterial to mammalian and human enzymes.
(§5) Horse Liver alcohol dehydrogenase (Lot Number 51K7520), Thermoanaerobium brockii NADP^+ dependent alcohol dehydrogenase (Lot Number 033K4093), Pseudomonas testosteroni 3α-hydroxysteroid dehydrogenase (Lot Number 053K8624), and Bacillus sphaericus 12α-hydroxysteroid dehydrogenase (Lot Number 70K16621) were purchased from Sigma (St. Louis, Mo.). Yeast alcohol dehydrogenase (Lot Number 93122920), glycerol dehydrogenase (Lot Number 92110122), (D)-lactate dehydrogenase (Lot Number 92419236), (L)-lactate dehydrogenase (Lot Number 92801821), NAD^+, NADP^+, NADH, and NADPH were purchased from Roche. Enzyme activity was confirmed by compliance to supplier's quality control assays prior to usage. Rat and human 3α-hydroxysteroid dehydrogenases were provided by Professor Trevor Penning (University of Pennsylvania School of Medicine) and human amyloid-β peptide binding alcohol dehydrogenase was supplied by Professor Shi Du Yan (Columbia University School for Physicians and Surgeons).
(§6) Enzymatic assays were performed in triplicate on selected fluorogenic substrates according to the following protocol. To each well of a FALCON 96-well black flat bottom plate was added (1) 40 μL of 500 mM potassium phosphate buffer pH 7.0, (2) 113 μL of double deionized water, (3) 25 μL of 2 mM NADH (except for Pseudomonas testosteroni 3α-hydroxysteroid dehydrogenase, rat 3α-hydroxysteroid dehydrogenase, and Thermoanaerobium brockii NADP^+ dependent alcohol dehydrogenase, in which cases 2 mM of NADPH was used), (4) 2 μL of a 3-5 mM solution of substrate in DMSO, and (5) 20 μL of a 40-50 μg/mL solution of enzyme. Reaction volumes were mixed thoroughly after addition of cofactor, substrate, and enzyme and allowed to react 12 hours at 25° C. Scanning of the 96-well plate was performed by the MicroMax 384 connected to a Jobin Yvon Fluorolog through F-3000 fiber optic cables.
(§7) Initial Screening with Fluorogenic Substrates: Screening of the first fluorogenic substrates for enzymatic activity has been described above. In short, 200 μL enzymatic assay volumes containing 100 mM potassium phosphate buffer (pH 7), 250 μM NAD(P)H cofactor, and 30-50 μM of ketones (1-7) were incubated for 12 hours on a black FALCON 96-well plate. Formation of the alcohol reduction product was determined by reading the fluorescence arising from excitation at the corresponding alcohol at either 340 nm (27-30) or 440 nm (31-33).

[2] = target: T2, Thermoanaerobium brockii alcohol dehydrogenase (TBAD) (Thermoanaerobacter brockii, UniProt P14941); experiment: as above; format: biochemical; conditions: 12 hour incubation, 30-50 μM substrate, pH 7, 250 μM NAD(P)H
T2 construct: purchased Sigma (St. Louis, Mo.) Lot Number 033K4093 (catalogue number not given)
T2 sequence (P14941 1-352): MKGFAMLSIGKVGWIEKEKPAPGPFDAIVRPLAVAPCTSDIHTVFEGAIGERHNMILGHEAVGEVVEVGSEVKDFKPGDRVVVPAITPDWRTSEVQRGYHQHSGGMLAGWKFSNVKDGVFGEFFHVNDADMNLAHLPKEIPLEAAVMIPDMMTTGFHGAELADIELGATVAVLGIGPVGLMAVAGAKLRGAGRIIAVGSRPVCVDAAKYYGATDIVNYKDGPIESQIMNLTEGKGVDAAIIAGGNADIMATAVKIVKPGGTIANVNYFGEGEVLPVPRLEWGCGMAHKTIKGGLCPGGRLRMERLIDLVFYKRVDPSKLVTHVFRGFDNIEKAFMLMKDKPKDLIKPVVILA
Method: as §3, §4, §5, §6, §7

[3] = substrate: O=C1CCc2c1c1cc3c4c(c1oc2=O)CCCN4CCC3; experiment: Steady state kinetic parameters of fluorogenic substrates with purified AKR1C isozymes; format: biochemical, human; conditions: other: isozyme 1C1, potassium phosphate buffer pH 6, NADPH, fluorimetric
Text: as §1, §2
(§8) Binding constant and catalytic rates (Km and kcat) of the second generation of fluorogenic substrates was determined as follows. To a STARNA semi-micro fluorometer cell (with 4 polished windows) was added 100 μL of 1 M potassium phosphate buffer (pH 6), 840 μL doubly deionized water, and 20 AL of 12.5 mM NADPH. After mixing the aqueous components thoroughly, 20 μL of acetonitrile was added as a cosolvent and mixed well. 20 μL of the second generation fluorogenic ketone (5a-5i) was then added and mixed to achieve assay concentrations of 5Km to Km/5. To initiate the reduction, 2 or 4 μL of diluted AKR1C (1:2 to 1:100, depending on the kinetics of a particular isozyme's reduction of a substrate) was then added to the cuvette. Fluorescence arising from the respective alcohol reduction product was then monitored over the course of 3 minutes (Excitation and emission band pass slits both at 4 nm, lamp 700 V, λexc 410 nm, λem 510). The rate of product formation, expressed in units of nanomoles per minute, were calculated according to previously published procedures (Wierzchowski, J.; Dafeldecker, W. P.; Holmquist, B.; Vallee, B. L. Anal. Biochem. 1989, 178, 57-62):
(§9) initial rate=[nst×(Ft−F0)/(Fst)]/t (1)
(§10) where Ft and F0 represent the fluorescence at times t and 0 minutes, nst is the nanomoles of product in a known concentration of product, and Fst is the fluorescence resulting from nst of product. Kinetic parameters were approximated by GraFit (Erithacus Software, Surrey, UK) nonlinear regression analysis program to fit the untransformed data to a hyperbolic function as originally described (Wierzchowski, J.; Dafeldecker, W. P.; Holmquist, B.; Vallee, B. L. Anal. Biochem. 1989, 178, 57-62). Reported enzymatic kinetic parameters are the average of three independent determinations from three different preparations of substrate and enzyme.

[4] = substrate: CC(=O)c1cc(=O)oc2c3c4c(cc12)CCCN4CCC3; experiment: as above; format: biochemical, human; conditions: other: isozyme 1C1, potassium phosphate buffer pH 6, NADPH, fluorimetric
Text: as §1, §2, §8, §9, §10

[5] = substrate: O=C(c1ccccc1)c1cc(=O)oc2c3c4c(cc12)CCCN4CCC3; experiment: as above; format: biochemical, human; conditions: other: isozyme 1C1, potassium phosphate buffer pH 6, NADPH, fluorimetric
Text: as §1, §2, §8, §9, §10

[6] = substrate: CC(=O)c1cc(=O)oc2c3c(ccc12)NCCC3; experiment: as above; format: biochemical, human; conditions: other: isozyme 1C1, potassium phosphate buffer pH 6, NADPH, fluorimetric
Text: as §1, §2, §8, §9, §10

[7] = substrate: CC(=O)c1cc(=O)oc2cc(N(C)C)ccc12; experiment: as above; format: biochemical, human; conditions: other: isozyme 1C1, potassium phosphate buffer pH 6, NADPH, fluorimetric
Text: as §1, §2, §8, §9, §10

For CC(=O)c1c(Br)c(=O)oc2c3c4c(cc12)CCCN4CCC3 [5e, 8-Acetyl-9-bromo-2,3,5,6-tetrahydro-1H,4H-11-oxa-3a-aza-benzo[de]anthracen-10-one], the “acceptance as substrate by the four human isozymes” value (AKR1C1-AKR1C4) was “not accepted as substrates by any of the tested 3a-HSD enzymes”.

With CC(=O)c1c(-c2ccccc2)c(=O)oc2c3c4c(cc12)CCCN4CCC3 [5f, 8-Acetyl-9-phenyl-2,3,5,6-tetrahydro-1H,4H-11-oxa-3a-aza-benzo[de]anthracen-10-one] the “acceptance as substrate by the four human isozymes” value (AKR1C1-AKR1C4) was “not accepted as substrates by any of the tested 3a-HSD enzymes”.

For COc1ccc2cc(C#CC(C)=O)c(=O)oc2c1 [compound 4, 7-Methoxy-3-(3-oxo-but-1-ynyl)-coumarin], the “reduction of probe (fluorescence increase)” value [1] was “catalyzed reduction” and the “reduction of probe (fluorescence increase)” value [2] was “catalyzed reduction”.

In the case of CC(=O)C#Cc1cc2cc3c4c(c2oc1=O)CCCN4CCC3 [compound 7, 9-(3-Oxo-but-1-ynyl)-2,3,5,6-tetrahydro-1H,4H-11-oxa-3a-aza-benzo[de]anthracen-10-one], the “reduction of probe (fluorescence increase)” value [1] is reported as “catalyzed reduction” and the “reduction of probe (fluorescence increase)” value [2] is reported as “catalyzed reduction”.

B1: AKR1C1 (Homo sapiens) (protein)
chain: MDSKYQCVKLNDGHFMPVLGFGTYAPAEVPKSKALEATKLAIEAGFRHIDSAHLYNNEEQVGLAIRSKIADGSVKREDIFYTSKLWCNSHRPELVRPALERSLKNLQLDYVDLYLIHFPVSVKPGEEVIPKDENGKILFDTVDLCATWEAVEKCKDAGLAKSIGVSNFNRRQLEMILNKPGLKYKPVCNQVECHPYFNQRKLLDFCKSKDIVLVAYSALGSHREEPWVDPNSPVLLEDPVLCALAKKHKRTPALIALRYQLQRGVVVLAKSYNEQRIRQNVQVFEFQLTSEEMKAIDGLNRNVRYLTLDIFAGPPNYPFSDEY
notes: gift of the Penning lab (University of Pennsylvania School of Medicine)
In the case of B1, the Km [3] is reported as 4.0 ± 0.6 4.5 ± 0.6 0.13 μM, the kcat [3] is reported as 1.6 0.40 7.2 no activity and the kcat/Km [3] is reported as 0.39 0.08 56 min^−1 μM^−1. For the same molecule, the Km [4] was 24.4 ± 2.3 7.3 ± 0.4 1.1 ± 0.1 20.6 ± 1.9 μM, the kcat [4] was 0.0183 s⁻¹ and the kcat/Km [4] was 0.046 2.1 6.9 0.020 min^−1 μM^−1. For the same molecule, the Km [5] was 5.5 ± 0.7 3.0 ± 0.2 0.051 ± 0.005 6.2 ± 0.7 μM, the kcat [5] was 0.025 s⁻¹ and the kcat/Km [5] was 0.27 7.8 106 0.10 min^−1 μM^−1. The Km [6] was 35.3 ± 2.9 4.8 ± 0.3 8.3 ± 0.9 40.2 ± 3.4 μM, the kcat [6] was 0.11 s⁻¹ and the kcat/Km [6] was 0.19 6.0 0.84 0.036 min^−1 μM^−1. The Km [7] was 21.0 ± 1.3 7.2 ± 0.6 4.3 ± 0.3 14.8 ± 0.9 μM, the kcat [7] was 0.0333 s⁻¹ and the kcat/Km [7] was 0.10 3.0 2.1 0.14 min^−1 μM^−1.
